From PMC12416549 (2024)

T1: TNFR1 (Homo sapiens, UniProt P19438)
T1 chain: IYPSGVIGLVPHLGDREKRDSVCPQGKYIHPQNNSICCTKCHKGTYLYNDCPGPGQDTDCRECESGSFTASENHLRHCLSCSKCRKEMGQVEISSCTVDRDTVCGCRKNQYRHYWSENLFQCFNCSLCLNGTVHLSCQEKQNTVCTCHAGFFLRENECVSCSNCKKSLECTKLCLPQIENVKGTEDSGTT


Biological target: T1, TNFR1
Experiment: yeast display SC50

Binder	apparent Kd (screen)
K73M (designed binder) SMEEEVEKAAKEYEKKKKEAIEKHLEKLKAKDKEAAERFLKELEEAAKEYAKDEAKTMSEEEAKRRAKKYKEMVLLSELSEEEQKEIKEAEEKLVRTILKYVEEAAK	869 pM
A35F (designed binder) SMEEEVEKAAKEYEKKKKEAIEKHLEKLKAKDKEFAERFLKELEEAAKEYAKDEAKTMSEEEAKRRAKKYKEKVLLSELSEEEQKEIKEAEEKLVRTILKYVEEAAK	956 pM
E103R (designed binder) SMEEEVEKAAKEYEKKKKEAIEKHLEKLKAKDKEAAERFLKELEEAAKEYAKDEAKTMSEEEAKRRAKKYKEKVLLSELSEEEQKEIKEAEEKLVRTILKYVREAAK	539 pM
E44Q (designed binder) SMEEEVEKAAKEYEKKKKEAIEKHLEKLKAKDKEAAERFLKELQEAAKEYAKDEAKTMSEEEAKRRAKKYKEKVLLSELSEEEQKEIKEAEEKLVRTILKYVEEAAK	653 pM
L94S (designed binder) SMEEEVEKAAKEYEKKKKEAIEKHLEKLKAKDKEAAERFLKELEEAAKEYAKDEAKTMSEEEAKRRAKKYKEKVLLSELSEEEQKEIKEAEEKSVRTILKYVEEAAK	12500 pM
A105F (designed binder) SMEEEVEKAAKEYEKKKKEAIEKHLEKLKAKDKEAAERFLKELEEAAKEYAKDEAKTMSEEEAKRRAKKYKEKVLLSELSEEEQKEIKEAEEKLVRTILKYVEEFAK	3000 pM
L28A (designed binder) SMEEEVEKAAKEYEKKKKEAIEKHLEKAKAKDKEAAERFLKELEEAAKEYAKDEAKTMSEEEAKRRAKKYKEKVLLSELSEEEQKEIKEAEEKLVRTILKYVEEAAK	718 pM
A51F (designed binder) SMEEEVEKAAKEYEKKKKEAIEKHLEKLKAKDKEAAERFLKELEEAAKEYFKDEAKTMSEEEAKRRAKKYKEKVLLSELSEEEQKEIKEAEEKLVRTILKYVEEAAK	593 pM
T57L (designed binder) SMEEEVEKAAKEYEKKKKEAIEKHLEKLKAKDKEAAERFLKELEEAAKEYAKDEAKLMSEEEAKRRAKKYKEKVLLSELSEEEQKEIKEAEEKLVRTILKYVEEAAK	107 pM
A9N (designed binder) SMEEEVEKNAKEYEKKKKEAIEKHLEKLKAKDKEAAERFLKELEEAAKEYAKDEAKTMSEEEAKRRAKKYKEKVLLSELSEEEQKEIKEAEEKLVRTILKYVEEAAK	869 pM
L94T (designed binder) SMEEEVEKAAKEYEKKKKEAIEKHLEKLKAKDKEAAERFLKELEEAAKEYAKDEAKTMSEEEAKRRAKKYKEKVLLSELSEEEQKEIKEAEEKTVRTILKYVEEAAK	446 pM
K52S (designed binder) SMEEEVEKAAKEYEKKKKEAIEKHLEKLKAKDKEAAERFLKELEEAAKEYASDEAKTMSEEEAKRRAKKYKEKVLLSELSEEEQKEIKEAEEKLVRTILKYVEEAAK	446 pM
E62A (designed binder) SMEEEVEKAAKEYEKKKKEAIEKHLEKLKAKDKEAAERFLKELEEAAKEYAKDEAKTMSEEAAKRRAKKYKEKVLLSELSEEEQKEIKEAEEKLVRTILKYVEEAAK	446 pM
R65S (designed binder) SMEEEVEKAAKEYEKKKKEAIEKHLEKLKAKDKEAAERFLKELEEAAKEYAKDEAKTMSEEEAKSRAKKYKEKVLLSELSEEEQKEIKEAEEKLVRTILKYVEEAAK	1690 pM
K18F (designed binder) SMEEEVEKAAKEYEKKKFEAIEKHLEKLKAKDKEAAERFLKELEEAAKEYAKDEAKTMSEEEAKRRAKKYKEKVLLSELSEEEQKEIKEAEEKLVRTILKYVEEAAK	869 pM
E82C (designed binder) SMEEEVEKAAKEYEKKKKEAIEKHLEKLKAKDKEAAERFLKELEEAAKEYAKDEAKTMSEEEAKRRAKKYKEKVLLSELSECEQKEIKEAEEKLVRTILKYVEEAAK	1860 pM
E81Y (designed binder) SMEEEVEKAAKEYEKKKKEAIEKHLEKLKAKDKEAAERFLKELEEAAKEYAKDEAKTMSEEEAKRRAKKYKEKVLLSELSYEEQKEIKEAEEKLVRTILKYVEEAAK	653 pM
R96S (designed binder) SMEEEVEKAAKEYEKKKKEAIEKHLEKLKAKDKEAAERFLKELEEAAKEYAKDEAKTMSEEEAKRRAKKYKEKVLLSELSEEEQKEIKEAEEKLVSTILKYVEEAAK	2480 pM
M58R (designed binder) SMEEEVEKAAKEYEKKKKEAIEKHLEKLKAKDKEAAERFLKELEEAAKEYAKDEAKTRSEEEAKRRAKKYKEKVLLSELSEEEQKEIKEAEEKLVRTILKYVEEAAK	12500 pM
E49C (designed binder) SMEEEVEKAAKEYEKKKKEAIEKHLEKLKAKDKEAAERFLKELEEAAKCYAKDEAKTMSEEEAKRRAKKYKEKVLLSELSEEEQKEIKEAEEKLVRTILKYVEEAAK	13800 pM
V95R (designed binder) SMEEEVEKAAKEYEKKKKEAIEKHLEKLKAKDKEAAERFLKELEEAAKEYAKDEAKTMSEEEAKRRAKKYKEKVLLSELSEEEQKEIKEAEEKLRRTILKYVEEAAK	7780 pM
K23H (designed binder) SMEEEVEKAAKEYEKKKKEAIEHHLEKLKAKDKEAAERFLKELEEAAKEYAKDEAKTMSEEEAKRRAKKYKEKVLLSELSEEEQKEIKEAEEKLVRTILKYVEEAAK	490 pM
S80Y (designed binder) SMEEEVEKAAKEYEKKKKEAIEKHLEKLKAKDKEAAERFLKELEEAAKEYAKDEAKTMSEEEAKRRAKKYKEKVLLSELYEEEQKEIKEAEEKLVRTILKYVEEAAK	2050 pM
E45P (designed binder) SMEEEVEKAAKEYEKKKKEAIEKHLEKLKAKDKEAAERFLKELEPAAKEYAKDEAKTMSEEEAKRRAKKYKEKVLLSELSEEEQKEIKEAEEKLVRTILKYVEEAAK	7780 pM
M58Q (designed binder) SMEEEVEKAAKEYEKKKKEAIEKHLEKLKAKDKEAAERFLKELEEAAKEYAKDEAKTQSEEEAKRRAKKYKEKVLLSELSEEEQKEIKEAEEKLVRTILKYVEEAAK	11400 pM
